The nanobody polyreactivity screen of Harvey et al. (2022)

Experiment: yeast display, Sf9 membrane polyspecificity reagent, FACS + sequencing; frameworks hold sequencing errors
Method in brief: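 After 36–48 hours of galactose induction, yeast (Saccharomyces cerevisiae BJ5465) displaying a synthetic nanobody library were stained at 4 °C for 1 hour with 10% biotinylated, detergent-solubilized Sf9 membrane reagent. Streptavidin microbeads enriched the stained cells before FACS sorting into low and high (top ~1%) gates on anti-HA and streptavidin fluorescence. Each clone's polyreactivity label reflects its gate of origin.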

Sequence | polyreactivity (PSR sort gate)
QVQLVESGGGLVQAGGSHRLSCAATGIIFARNAMGWYRQAPGKERELVAGINGGRTNYADSVKGRFTISRDNAKNTVYLQMNSLKPEDTAVYYCAARLGRVKYDHWGQGTQVTVSS | high polyreactivity
QVQLVESGGGLVQAGGSHRLSCDASGRIFGPYAMGWYRQAPGKESELVATISWRGARTYYADSVKGRFTISRDNAKNTVYLQMNSLKPEDTAVDYCAATFYYSARFDYWGQGTQVTVSS | high polyreactivity
QVQLVESGGGLVQAGGSHRLSCSASGRIFGLYAMGWYRQAPGKERELVAAITSSTGSTYYADSVKGRFTISRDNAKNTVYLQMNSLKPEDTAVYYCAADLYSPSIYGYIYYTWLDYWGQGTQVTVSS | high polyreactivity
QVQLVESGGGLVQAGGSHRLSSAASARTFQDNPMGWYRQAPGKERELVAAISWRGGSTNYADSVKGRFTITRDNAKNTVYLQMNSLKPEDTAVYYCTRDRRKYGKLDYWGQGTQVTVSS | low polyreactivity
QVQLVESGGGLVQAGGSHSLSCAASGSTFKHYAMGWYRQAPGKERELVAAISWGGVNTDYADSVKGRFTISRDNAKNTVYLQMNSLNPEDTAVYYCAAGRWSVGTYDYWGQGTQVTVSS | low polyreactivity
QVQLVESGGGLVQAGGSIPLSCAASGIIFYYNTMGWYRQAPGKERELVATSTASDGSTYADSVKGRFTISSDNAKNTVYLQMNRLKPEDTAVYYCNADTRTQGPFSAPYYREMNYWGQGSQVTVSS | low polyreactivity
QVQLVESGGGLVQAGGSIRLSCAASGFIFYVYAMGRSRQAPGKERELVAAISGGGDSTYYADSVKGRFTTSRDNAKNTVYLQMNSLKPEDTAVYYCATRRYPEVVNGESGYWGQGTQVTVSS | low polyreactivity
QVQLVESGGGLVQAGGSIRLSCAASGFTITHYAMGWYRQAPGKERELVAAISASGGSTYYADSVKGRFTISRDNAKYTVYVQMNSLKPEDTAVYYCAATWDYRRGRYPYDYWGQGTQVTVSS | high polyreactivity
QVQLVESGGGLVQAGGSIRLSCAASGGTFGYYVMGWYRQAPRKERELVAAITSGGSTKYADSVKGRFTISRDNAKNTVYLQMNSLKPEDTAVYYCAADVTRREPYQSYDYWGQGTQVTVSS | low polyreactivity
QVQLVESGGGLVQAGGSIRLSCAASGNTFRWYAMGWYRQAPGKEREFVAAISSSGGSTYYADSVKGRFTISRDNAKNTVYLQMNSLKPEDTAVYYCNAASVTRHVSFATDYEYWGQGTQVTVSS | high polyreactivity
QVQLVESGGGLVQAGGSIRLSCAASGNTFVLYTMGWYRQAPGKERELVAAISGRGTNTYYADSVKGRFTISRDNAKNTVYLQMNSLKPEDTAVYYCAARYKTLVTDYEYWGQGTQVTVSS | high polyreactivity
QVQLVESGGGLVQAGGSIRLSCAASGRIFKAYAMGWYRQAPGKERELVAAITRGGRTKYADSVKGRFTLSRDNAKNTVYLQMNSLKPEYTAVYYCNPPRGVLYDYWGHGTQVTVSS | high polyreactivity
QVQLVESGGGLVQAGGSIRLSCAASGRIFRYNAMGWYRQAPGKERELVAAISGSGDRTYYADSVKGRFTISRDTAKNTVYLQMNSLKPEDTAVYDCAADVVWRQYGSWFYYWGQGTQVTVSS | high polyreactivity
QVQLVESGGGLVQAGGSIRLSCAASGRILYYYVMGWYRQAPGKERELVAAITRGGSTDYADSVKGRFTISRDNAKNTVYLQMNSLKPEDTAVFYCAVPSWPFWVRVEGDYWGQGTQVSVSS | low polyreactivity
QVQLVESGGGLVQAGGSIRLSCAASGRTFDPYSRGWYRQAPGKERELVAAISRSGGSTYYADSVKGRFTISRDNAKNTVYLQLNSLKPEDTAVYYFDADASRYYYEYDYWGQGTQVNVSS | high polyreactivity
QVQLVESGGGLVQAGGSIRLSCAASGRTFPVNAMGWYRQAPGKERELVAAITTNGGRTYYADSVKGRFTISRDNEKNTVYLQMNSLKPEDTAVYYCATGAYTDKRYGYWGQGTQVTVSS | high polyreactivity
QVQLVESGGGLVQAGGSIRLSCAASGSIFAPYAMGSYRQATGKVREFVAAISWSGGGTYYADSVQGRFTISRDNAKNTVNLQMNSLKPEDTAVYYCAAYRNKESIFRTILDYWGQGTQVTVSS | low polyreactivity
QVQLVESGGGLVQAGGSIRLSCAASGSIFVDNARGWYRPAPGKERELVAAIRSRDTSTYYADSVKGRFTISRDNAKHTVYLQMNSLKPEDTAVYYCAARTSKRVSQYNYWGQGTQVTVSS | high polyreactivity
QVQLVESGGGLVQAGGSIRLSCAASGSTYGTNTMGWSRQAPGKERELVAGITSGGNTNYADSVKGRFTISRDNAKNTVYLQMNSLKPEDSAVYYCAPRYIYYYAYGYNYWGQGTHVTVSS | high polyreactivity
QVQLVESGGGLVQAGGSIRLSCAASGTIFRSYAMGWYRQAPGKERELVAAITSSSGSTYYADSVKGRFTISRDNAKNTVYLQMNSLKPEDTAGYYFNAPYWKSRFRAYYHWGQGTQVTVSS | high polyreactivity
QVQLVESGGGLVQAGGSIRLTCAASGRIFYLNAMGWYRQAPGKEREMGAAITWSGGRTYYADSVKGRFTISRDNAKNTVYLQMNSLKPEDTAVYYCAAVPRPGPNTVLTPYGYWGQGTQVTVSS | high polyreactivity
QVQLVESGGGLVQAGGSIRSSCAASGRTFGSNAMGWSRQAPGKERELVAAISSTVSTNYADSVKGRFTISRDNAKNTVYLQMNSLKPEDTAVYYCNVTRHYSYVSEYDYWGQGTQVTVSS | low polyreactivity

Sequence | polyreactivity (PSR sort gate)
QVQLVESGGGLVQAGGSLCLSCAGSGIFVYKAMGRYRQAPGKEREFVAAINKSGASTFYADSVKGRFTISRDNAKKTVYLQMNSLKPEDTAVYYCAKVPHVYRHYYYWGQGTQVTVSS | low polyreactivity
QVQLVESGGGLVQAGGSLGLSCAASGFTFHKYAMGWYRQAPGKERELVAAITSSGGSTYYADSVKGRFTISRDNAKNTVYLQMNSLKPEDTAVYYCAVGFYYFSSWYSYDYWGQGTQVTVSS | high polyreactivity
QVQLVESGGGLVQAGGSLGLSCAASGRSFYFYAMGWYRQAPGKERELVAALSRGGGTNYADSVKGRFTLSRDNATNTVYLQMNSLKPEDTAVYDCAARPGPYWTVTFRSPKYYYWGQGTQVTVSS | high polyreactivity
QVQLVESGGGLVQAGGSLGLSCAASGSNFHSYAMGWYRQAPGKERELVGAISWCGGSTNYSDSVKGRFTISRDNAKNTVYLQMNSLKPEDTAVYYCAAKEFGSDEYKTGSGYDYWGQCTQVTVSS | low polyreactivity
QVQLVESGGGLVQAGGSLGLSCAASGSTFQFYAMGWNRQAPGKERELVAAISWSSGSTYYADSVKGRFTISRDNAKNSVYLQMNSLKPEHTAVYYCNARYPWSYRYWDGGYWGQGTQVTVSS | low polyreactivity
QVQLVESGGGLVQAGGSLLISCAASGSIFTCYAMGWYRQAPGKERELVAASTRGGSTYADSEKGRFTISRDNAKNTVYLQRKSLIPDVTGVYYCNAVYGVYDFKYWGQGTQVSVSS | low polyreactivity
QVQLVESGGGLVQAGGSLLLSCAASAFTSDVYAMGWYRQAPGKETELVADISARGGSTYYADSVKGRFTISRDNAKNTVYLQMNSLKPEDTAVYYCAAEVYVGTIGFYADFFYYPVYYWVQGTQVTVSS | low polyreactivity
QVQLVESGGGLVQAGGSLLLSCAASGFIFDYNAMGGYRPAPGKETELVAAISRSGGSTYADSVKGRFTFSRDNAMNTVYLQMNSLKPEDTAVYYCAADILSRSRSRRVDYWGQGTQVTVSS | low polyreactivity
QVQLVESGGGLVQAGGSLLLSCAASGFTFSGYVMGWYRQAPGKERELVAAISNSGGRTYADSVKGRFTISRDNAKNTVYLQMNSLKPEDTAVYYCAKKPGGFSQASRVDYDYWGQGTQVTVSS | low polyreactivity
QVQLVESGGGLVQAGGSLLLSCAASGFTFWNYAMGWYRQAPGKEMEFVASITWSGGSTYYADSVKGRFTISSDNAKNTVYLQMNSLKPEDTAVYYCAVGGSGYGLYGVGYALDYWGQGTQVTVSS | high polyreactivity
QVQLVESGGGLVQAGGSLLLSCAASGFTFYGYVMGWYRQAPGKERELVAGITWRGGSTYYADSVKGRFTISRDNAKNTVYLQMNSLKPEDTAVYYCAAKSFRRGTFDYWGQGTQVTVSS | high polyreactivity
QVQLVESGGGLVQAGGSLLLSCAASGGTIRYYAMGWSRQSPGKERELVAAISRGGTNTYYADSVKGRFTISRDNAKNTVYLQRNSLKPDDTAVYYCSAKRYSRYNYWGQGTQVTVSS | high polyreactivity
QVQLVESGGGLVQAGGSLLLSCAASGIIFGTNAMGWYRQAPGKERELVAGITSSGDSTYYADSVKGRFTISRDNAKNTVYLQMNSLKPEDTAVYYCAREIRTREFDSWGQGTQVTVSS | low polyreactivity
QVQLVESGGGLVQAGGSLLLSCAASGIIFTRYVMGWYRQAPGKERELVATIRIGGSTTYADSVKGRFTISRDNAKITVYLQMYSLKPEDTAVYYCAADTWYITTYGGAGSYAYGFYYWGQGTQVTVSS | low polyreactivity
QVQLVESGGGLVQAGGSLLLSCAASGITFKWNDMGWYRQAPGKEREFVAAITGSTGSTFYADSVKGRFTISRDNAKNSVYLQMNSLNTEDTAVYYCAAGPWFYYWGQGTQVTVSS | low polyreactivity
QVQLVESGGGLVQAGGSLLLSCAASGRILWRYAMGWYRQARGKERELVAGITYSGGRTYYADSVKVRFTISRDNAKNTVYLQMNSLKPEDTAVYYCNADYADSPYFYLLLDYWGQGTQVTVSS | low polyreactivity
QVQLVESGGGLVQAGGSLLLSCAASGSIYSYYAMGWYRQAPGKERELVAAISQSGGTTYYADSVKGRFTISRDNAKNTVYLQMNSLKPEDTAVYYCAARATSSFDTQYYYWGQGTQVTVSS | low polyreactivity
QVQLVESGGGLVQAGGSLLLSCAASGSTFAPYAMAWYRQAPRKERELVATISASGGTTYYADSVKGRFTISRDNAKNTVYLQMNSLKPEDTAVYYCAKRRVWWPAHRSYLYASEFGYWGQGTQVTVSS | low polyreactivity
QVQLVESGGGLVQAGGSLLLSCAASGSTFRYYAMGWYRPAPGKERELVAATTSGGSTYYADSVKGRFTISRDNAKNTVYLQMNSLKPEDTAVYYCAKSISRYFFYRPSAAAYGYDYWGQGTQVTVSS | high polyreactivity
QVQLVESGGGLVQAGGSLLLSCAASGSTFSYYAMGWYRPAPGKERELVATITKRGGSTYYADSVKGRFTISRDNAKNTFYVQLNSLKPEDTAVYDCAASYPSRWRATYPTGFEYWGQGTQVTVSS | high polyreactivity
QVQLVESGGGLVQAGGSLLLSCAASGSTFYLYAMGWYRQAPGKEMELVASISQSGGSTFYADSVKGRFTISRDNAKYTVYLQMNSLKPEDTAVYYCAADPNRSTDTVVPGFDYWGQGTQVTVSS | high polyreactivity
